Experimental data: patent US20220235356

What follows are sequences tested against KRAS G12D (GMPPNP-loaded) G12D (Homo sapiens) (UniProt P01116) (assay: inhibition). Settings: Raf-1 binding remaining vs no aptamer, average of four aptamers at 5x KRAS; PBS, 37 C, ELISA.

activity, 50%:
NCATANNNNNCGGTACGTCCGNNTATGNGTGGGNGGTAAGGGAGACCNCNTGACTAGTACANNNCCACN [NBK2-1]
NNNNNNNNGATCATGNNCCGGGTTCGGNTGGGGGGNNNNNNCATGATCTACTTGACTAGTNNN [NBK1-1]
NNNNNNNNNNNNGGNCATNNGATCATGNNCCGGGTTCGGNTGGGGGGNNNNNNCATGATCTACTTGACTAGTANATGNCCNNNNNN [NBK1]
NNNNNNNNNNNNNNNCATANNNNNCGGTACGTCCGNNTATGNGTGGGNGGTAAGGGAGACCNCNTGACTAGTACANNNCCACNNNN [NBK2]
